# Laboratory results published in patent US20070129307A1, “Insulin epitopes for the treatment of type 1 diabetes” (The University of British Columbia, priority 2001, published 2007).
# T1: murine MHC class I molecule, H-2Kd (mouse)
# T1 chain 1: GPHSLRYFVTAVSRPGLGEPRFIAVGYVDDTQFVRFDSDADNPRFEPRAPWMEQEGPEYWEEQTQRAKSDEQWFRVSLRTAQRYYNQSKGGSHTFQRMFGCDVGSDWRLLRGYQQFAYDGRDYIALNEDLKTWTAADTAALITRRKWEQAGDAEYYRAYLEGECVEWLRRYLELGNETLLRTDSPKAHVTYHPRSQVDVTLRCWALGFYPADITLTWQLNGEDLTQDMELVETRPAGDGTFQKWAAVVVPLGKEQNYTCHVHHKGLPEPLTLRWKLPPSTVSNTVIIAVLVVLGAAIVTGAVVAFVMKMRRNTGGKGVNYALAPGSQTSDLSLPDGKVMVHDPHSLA
# T1 chain 2: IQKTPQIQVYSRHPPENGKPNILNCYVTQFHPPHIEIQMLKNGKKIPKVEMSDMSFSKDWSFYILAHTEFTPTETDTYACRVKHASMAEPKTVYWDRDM
# Experiments:
# [1] = target: T1, murine MHC class I molecule, H-2Kd …; test: MHC class I stabilization assay on TAP-deficient RMAS-Kd cells, anti-H-2Kd-FITC, flow cytometry (background without peptide 6.07%)
# [2] = target: human MHC class I molecule HLA-A*0201 (human); test: HLA-A2 stabilization on T2 cells loaded with 50 ug/ml peptide, anti-HLA-A2 (BB7.2) flow cytometry, MFI relative to CMV/A2
% of RMAS-Kd cells staining positive for surface H-2Kd [1],relative HLA-A2 surface expression (% of CMV/A2 peptide binding) [2],Binder
73.7%,–,LYLVCGERG (modifications not checked) [INSL]
–,> 80%,DLMGYIPLV (modifications not checked) [HCV peptide]
72.7%,–,KYNKANVFL (modifications not checked) [NRP-V7]
